Data: the DeepSol protein solubility set

Experiment: soluble on expression in E. coli; label from the status in PepcDB or PDB records

**Q.** With “MSVSSRGAASPAHRTAPTKWLFTKEEMKKTASIQEGMSREEELASRQMAAAFIQEMIDGLNNVKDPKMKIGHTGLCVAHTHMHRFYYLHSFKKYDYRDVGAACVFLAGKSQECPRKLSHVISVWRERKDRKQLTTETARNEAAQIIVLLESMILQTIAFDLNVHLPHIYVLDIMKKVDKKEHYRPLTSCAYYFATDVIAVTDWSLRYSAASMSIVIIHLMAAYANVRIERLFADFINEDSPWYAKFDETMTNEKLREMEVDFLVTYRNSCQFHHASKFNFREHRPMLENPDVRKLDRTRDARSHSPMVHHVPDSTVNVRPRAYVPRDELTVERLNKERGVEEERRKRERDRMAGKLDSSTSSEKRARIDPLANNFVSSSSSSNGKLAPPPIPPQLNFPPPPIVSSGYNHKNQINRKNHENNHTNSSVSPAFVPSARTFDVAPMLTPPTAPKLQSADNSDMDLEDGELE” as the sequence, how does the “soluble on expression in E. coli” value read?
**A.** Its value is “not soluble”.

**Q.** With “TPAAPISTVADGDWPAYGRNQEGQRFSPLKQINADNVKNLKEAWVFRTGDLKQPNDPGEITNEVTPIKVGDTLFLCTAHQRLFALDAATGKEKWHFDPQLNADPSFQHVTCRGVSYHEAKADNAPADVVADCPRRIILPVNDGRLFAVNADNGKLCETFANKGILNLQTNMPVTTPGMYEPTSPPIITDKTIVIAGAVTDNFSTREPSGVIRGFDVNTGKLLWAFDPGAKDPNAIPSDEHHFTLNSPNSWAPAAYDAKLDLVYLPMGVTTPDIWGGNRTPEQERYASSIVALNATTGKLAWSYQTVHHDLWDMDMPSQPTLADIEVNGKTVPVIYAPAKTGNIFVLDRRNGELVVPAPEKPVPQGAAKGDYVTKTQPFSDLSFRPKKDLTGADMWGATMFDQLVCRVIFHQLRYEGIFTPPSEQGTLVFPGNLGMFEWGGISVDPNRQVAIANPMALPFVSKLIPRGPGNPMEPPKDAKGSGTESGVQPQYGVPYGVTLNPFLSPFGLPCKQPAWGYISALDLKTNEVVWKKRIGTPQDSLPFPMPVKLPFTMGMPMLGGPISTAGNVLFIGATADNYLRAYNMSNGEKLWEARLPAGGQATPMTYEVNGKQYVVISAGGHGSFGTKMGDYIVAYALPDDAK” as the sequence, how does the “soluble on expression in E. coli” value read?
**A.** Its value is “not soluble”.

**Q.** For “MLQDADRTRILAISPHLDDAVLSVGASLAQAEQDGGKVTVFTVFAGSAAPPYSPAAERFHARWGLSPTEDAPLRRRNEDIAALDQLGAGHRHGRFLDAIYRRSPDGQWLLHHNEGSMVRQQSPANNHDLVAAIREDIESMIAECDPTLVLTCVAIGKHPDHKATRDATLLAARERGIPLRLWQDLPYAAYSQDLAELPDGLRLGSPELSFVDEEARTRKFQAMKHYATQLSVLDGPNKNLFAKLDEHARNAAPDGGYNETTWPVIRYAAE”, which “soluble on expression in E. coli” value is on record?
**A.** The value was “soluble”.

**Q.** For “NEDCNTIFGADFSHEGETPGLGAEITRSEFSGQFIGKEIFKEGEFRSVAVVKKGQKAEGKDYVDGISGGTLTSDGVNEMLISSLRPYALYLMNNVKK”, which “soluble on expression in E. coli” value is on record?
**A.** Its value is “not soluble”.

**Q.** Which “soluble on expression in E. coli” value does the source give for “MSLSFTSTIKVVIADDHAILREGLKQILAETEDIEVVADAKNAAEAIKLAGTKGLDVVVLDISLPDRSGIEACNIIKKEHPGVAVLMLSMHREDAYAIRALRAGAVGYLSKQSASDQLVTAIRTVAKGKKYISAEVALALADQVSGGLEKPIHDTLSNREFQTLTMIASGLSVSEIAENLSLSVKTVSMYRARLLEKLNLRHNAELTHYAIKNNLIDEGHHHHHH” here?
**A.** Its value is “soluble”.

**Q.** Which “soluble on expression in E. coli” value does the source give for “MSAKREFSHITLASTPFKKRIDQNSLKTDSDIEKDTNIAHKCAERFNYNTNLHRKVTLSDRFELAALGYEMKAKPRTIIEKHNDCDEFHFIYRKEKKNDYGTGSPLSAGLSLSNPLPAGRGFLSPAIQNTSNQFTFSGSPRITPQKHTPVSANHKPARSIFDDIPSNIA” here?
**A.** Its value is “not soluble”.

**Q.** With “MDAQGLRLITALKLCILATKKDGTPLYSDREQYIFSELYGLEGNEIQNMISLGDKLGLSRERIRQLKVKVFKKFGILRKRNIPAIIDIDNLLTNNHQINLDEVHNFACYLKKFQESHLSEYPIETLFDLAQLYFKQDYSIIKTWKREIKETSTIFPKKQNSQLTDITNKIIWFDHVKSWTLEEIHQITPHRNYDPNKKYLESEAGEFYSNKLQRNVFYESMLEKKFYKRLEKSHEVIYYVEQGITITYDRGKYTPDAIVFLDDGKGFVVEIKPLTEMANQSVQKKFKALLDFCEETGLGATLTDGRTDINHIFETIPNLAFEESILQSLKEFKKLTYGKVNELKNKYQVTTIHLLQCIIKNNLSYNSMPTFIWKTKKPIICDLLLSPENKMLLKGSTDIINNDKTLEHHHHHH” as the sequence, how does the “soluble on expression in E. coli” value read?
**A.** Its value is “not soluble”.

**Q.** Which “soluble on expression in E. coli” value does the source give for “MDKADLYEKNQSRKDILNYYREEDKDFEQYLNFRENRKMLQQAFESGTLIRKQNYRARIHERMVEQPVTEKKELLRSR” here?
**A.** The value was “not soluble”.

**Q.** With “MSLEASLVKLSEQELTSLNYAFQQMRKPLQTINYDYAVWDRTYSYMKSNSASAKRYYEKHEYPDDTFKSLKVDGVFIFNRTNQPVFSKGFNHRNDIPLVFELTDFKQHPQNIALSPQTKQAHPPASKPLDSPDDVPSTHGVIATRYGPAIYSSTSILKSDRSGSQLGYLVFIRLIDEWFIAELSQYTAAGVEIAMADAADAQLARLGANTKLNKVTATSERLITNVDGKPLLKLVLYHTNEGHHHHHH” as the sequence, how does the “soluble on expression in E. coli” value read?
**A.** The value was “not soluble”.

**Q.** With “MYYVGIMSGTSLDGIDAVLVDFSGPSFSLLHTCYIPYDQSLRAALLGLNQAGENELHRAAILSNQLSGWYAQAVGRLLEKSGIDPGEIIAVGCHGQTIRHCPQPENGYSIQLVNGALLAELTGMTVVTDFRSRDIAAGGQGAPLVPAFHHEMFAHRDIHRLIINIGGITNITSLPVSGGVNGFDCGPGNMLMDAWCLKHTGMTYDHNGSWAESGRVINPLLENLLNFPYFSLPPPKSTGREMFSLDWLQPCLRGDEATQDVQSTLLQLTVRTITDSVETYYPAVRELYLCGGGAHNGTLVTRLQQQLPGRRINLTDALGIEADWVEACAFAWLARQSIERAPGNLPAVTGATGSRTLGAIYPA” as the sequence, how does the “soluble on expression in E. coli” value read?
**A.** Its value is “not soluble”.

**Q.** With “SLKALWIYVGPVEDYGWTRAHHDGHMKARSKLGWLESSYIETVSEDKAYDVIKAQLDAEGYDAVFATSYGYMDALKRLATEYPDVKFYHCSGPWEEFRDLPNVSTYFAEFYQLYYLNGLAAAGATETCNLGYIPAFLIPEVVRHINAYVIGAVEGAKVLGKCGDGRNIRVLVTPPLNSWFAPDKARDAARLLVETYDVDVIAYTEDTTAVLETAESYWDQGVKVYSFSHYTDMYAYFKSQGKTLRSHLTGQIS” as the sequence, how does the “soluble on expression in E. coli” value read?
**A.** Its value is “soluble”.

**Q.** With “MGSDKIHHHHHHMQHHKVAIIGAGAAGIGMAITLKDFGITDVIILEKGTVGHSFKHWPKSTRTITPSFTSNGFGMPDMNAISMDTSPAFTFNEEHISGETYAEYLQVVANHYELNIFENTVVTNISADDAYYTIATTTETYHADYIFVATGDYNFPKKPFKYGIHYSEIEDFDNFNKGQYVVIGGNESGFDAAYQLAKNGSDIALYTSTTGLNDPDADPSVRLSPYTRQRLGNVIKQGARIEMNVHYTVKDIDFNNGQYHISFDSGQSVHTPHEPILATGFDATKNPIVQQLFVTTNQDIKLTTHDESTRYPNIFMIGATVENDNAKLCYIYKFRARFAVLAHLLTQREGLPAKQEVIENYQKNQMYLDDYSCCEVSCTC” as the sequence, how does the “soluble on expression in E. coli” value read?
**A.** The value was “not soluble”.

**Q.** With “MELEFKCSDVGVWKEALSSYDSRIESLNKPELVSLDQFYRIKLPCLLHDRDPNPYLTTSELSQLMKWKLSRGKWRPRLLDFVSSLDDSVVKSASEKAFKSLPDISKAVKELTVLKGVGAATASAVLAAYAPDIAPFMSDEAMEVALGNSKDYSLKQYLLFATKLQDKAKELKLKGEWDGPSDIERALWSCTVRAKSQPEKSSSGKKRKR” as the sequence, how does the “soluble on expression in E. coli” value read?
**A.** Its value is “not soluble”.

**Q.** For “MDNRIPSALTTSVKSPKTPSGIPFLIRERDVIKAILEFLEIRGLHITQLSLEREAGVINGAFSDDLLFLRQLILDGQWDNALDFVEPLKPVNEFDFGAFRYNITKYKFFELLCVKLEPGPLHDNDFAVEELVECLKDLEHICPTPEDYRHLCALLTLPKLSDHEDFKNWNPSSARVECFNKVNQLCGHLLPPTGKEKDRGDDANSSNDRLTGLITKGRFYEGCVDYCQAQAIGDKRGIDAGPMPSEMLTFRPKLGSADLSLVCWLEMVGKEQFSMPFKQKQLELKVDHIRKPKLEAPWTETIMATPIKPGGQFPHNLVPSSKLKFAEKMSQSMTMSMLPPADLTTSMFPSVPRGHPMSQSTAAGFCLGTAITEADAMAQSLLIDEMMESSQLARTSRPDTLRGVGMMMTGDTIVPVQPAQVMINAPSQLSSQMMSMSMAPQVMAPIAPMAQNMINYDFAPVRRQLDEMARRSLPPSRLPTVPELGSPAVNSHHEENLMTQSRLFQQFSAAKQINEMVLPRGVGGVVGAAGAVGGAHVLPLQSQERLFQQRVAAAPGFQNGAQIPNQSMVPQGVPMSHQIRPQSIAGLPQAQPQVPQQLQRPVSAPTGMGVQFVPVCRYEDSQAIRATGFHPSGRYFALGTNSKQLHICLYPDTKRTQSRPMAYEQTKNAEIAVTRPKQHRGSVYCLSFNPNGDLLATGSNDKTIRLMAFNEDSCRIGAEMELTCHDGTVRDLIFIESSINRSTILVSGGAGNCHLNVTDCNTGQLIQSMKGHTAPILGLYTWSQAGNQFVSCSQDKTIRFWDLRQQTAVNVISPGSNKSHNASPVTSVCVDPNGKLLVSGHEDASVALFDIGGNRILQTFRPHGDEVRTVRFSNAAYYLLTASYDKRVVISDMRGDLMAPLMYLPVAEHSDKVVQCRWHPHDFSFLSTSADRSAVLWSLPNR”, which “soluble on expression in E. coli” value is on record?
**A.** The value was “not soluble”.

**Q.** For “MKKKSNLTLFMKQLIRSLKEEERFSTAHIYQSTLNAFMLFCKTDAIRFNQMERSRLKQFENHLRNKGCTWNTVSTYMRTLRSIYNKAVDDGLAEEKPRLFRHVYTGVKANTKRALDAKDMSKLLSASLPRPLPQSMKESRAWITLMFLLRGMPFVDLAHLRKTDLQDSVISYRRHKTGALLTVEIPPAAMNLIKRYQNTDSASPYLLPILSGNRKSEEEYAEYQHALRKLNYDLKQLAVYCGIKLNVSSYTSRHTWATLAKYCHFSEQLICDALGHSSTKVTETYLKSFKNDELDRANKVIINHINISI”, which “soluble on expression in E. coli” value is on record?
**A.** Its value is “not soluble”.

**Q.** Which “soluble on expression in E. coli” value does the source give for “MGSDKIHHHHHHVREVSKEKGKIDLVSGAASTPLTNDKCSPTGFHWTYDTYALANGTGNAVVKNGGKTWFFLTADYAFGHNLQAQTEKVVKANGGEVKGAVKHPFPNSDFSSFLLQAQASGAQIIGLANAGADTINAIKQAKEFGITQAGQQLAGLLVFITDIHSLGLETAQGMMLTTGFYWDMDDQTRAWSKRWSEKMGNGKMPSMVHAGTYSQVLHYLRAAAAAKTDEGIKVADEMRKLPINDFFAKNGKIRADGRMVHDMYLAQVKKPSESKGPWDYYKIVRTIPGDEAYQPLSESTCSLVKK” here?
**A.** Its value is “not soluble”.

**Q.** With “MRTLFYSQLMYEAAKRQPHPHRCADGRTIADLSAQDLKKLNIAQLFFVAGRESEASYGDAYHRYHLYGAKQFEEYARKHLTHLFSEKEIVLYSRCIEDRIGDRFDETAEGYLIHLSHMIDLMRCKSPVEVFIGHSRGVSGIVPTLIQLFGREDGLDIMHYARSLFAATGEAVPYISSSEWPHLGIESDRVERALKIVGPLEVEGQEADAKKTAQAGFSVDGCYGALVKVDTPDWYHQVKEKEDYDVDEVIALPPQITIREEPPKANESFLLSLLRHVFWCCPSNQKRDDENTDVLEKKAQL” as the sequence, how does the “soluble on expression in E. coli” value read?
**A.** Its value is “not soluble”.

**Q.** Which “soluble on expression in E. coli” value does the source give for “GIPKCPEDWGASSRTSLCFKLYAKGKHEKKTWFESRDFCRALGGDLASINNKEEQQTIWRLITASGSYHKLFWLGLTYGSPSEGFTWSDGSPVSYENWAYGEPNNYQNVEYCGELKGDPTMSWNDINCEHLNNWICQIQKGQTPKPD” here?
**A.** The value was “soluble”.

**Q.** For “DTPEPPLHNFYCSKLLDLVFLLDGSSMLSEAEFEVLKAFVVGMMERLHISQKRIRVAVVEYHDGSRAYLELKARKRPSELRRITSQIKYTGSQVASTSEVLKYTLFQIFGKIDRPEASHITLLLTASQEPPRMARNLVRYVQGLKKKKVIVIPVGIGPHASLKQIRLIEKQAPENKAFLLSGVDELEQRRDEIVSYLCDLAPEAPAPT”, which “soluble on expression in E. coli” value is on record?
**A.** Its value is “soluble”.

**Q.** Which “soluble on expression in E. coli” value does the source give for “NTAPSLTVPECAICLQTCVHPVSLPCKHVFCYLCVKGASWLGKRCALCRQEIPEDFLD” here?
**A.** The value was “soluble”.
